What follows are sequences tested against Jak2 (UniProt O60674) (assay: phosphorylation enrichment, bacterial display (enrichment ratio); higher = better substrate or ligand; peptides without Tyr show the background).
Chain of Jak2 (O60674 whole entry, looked up): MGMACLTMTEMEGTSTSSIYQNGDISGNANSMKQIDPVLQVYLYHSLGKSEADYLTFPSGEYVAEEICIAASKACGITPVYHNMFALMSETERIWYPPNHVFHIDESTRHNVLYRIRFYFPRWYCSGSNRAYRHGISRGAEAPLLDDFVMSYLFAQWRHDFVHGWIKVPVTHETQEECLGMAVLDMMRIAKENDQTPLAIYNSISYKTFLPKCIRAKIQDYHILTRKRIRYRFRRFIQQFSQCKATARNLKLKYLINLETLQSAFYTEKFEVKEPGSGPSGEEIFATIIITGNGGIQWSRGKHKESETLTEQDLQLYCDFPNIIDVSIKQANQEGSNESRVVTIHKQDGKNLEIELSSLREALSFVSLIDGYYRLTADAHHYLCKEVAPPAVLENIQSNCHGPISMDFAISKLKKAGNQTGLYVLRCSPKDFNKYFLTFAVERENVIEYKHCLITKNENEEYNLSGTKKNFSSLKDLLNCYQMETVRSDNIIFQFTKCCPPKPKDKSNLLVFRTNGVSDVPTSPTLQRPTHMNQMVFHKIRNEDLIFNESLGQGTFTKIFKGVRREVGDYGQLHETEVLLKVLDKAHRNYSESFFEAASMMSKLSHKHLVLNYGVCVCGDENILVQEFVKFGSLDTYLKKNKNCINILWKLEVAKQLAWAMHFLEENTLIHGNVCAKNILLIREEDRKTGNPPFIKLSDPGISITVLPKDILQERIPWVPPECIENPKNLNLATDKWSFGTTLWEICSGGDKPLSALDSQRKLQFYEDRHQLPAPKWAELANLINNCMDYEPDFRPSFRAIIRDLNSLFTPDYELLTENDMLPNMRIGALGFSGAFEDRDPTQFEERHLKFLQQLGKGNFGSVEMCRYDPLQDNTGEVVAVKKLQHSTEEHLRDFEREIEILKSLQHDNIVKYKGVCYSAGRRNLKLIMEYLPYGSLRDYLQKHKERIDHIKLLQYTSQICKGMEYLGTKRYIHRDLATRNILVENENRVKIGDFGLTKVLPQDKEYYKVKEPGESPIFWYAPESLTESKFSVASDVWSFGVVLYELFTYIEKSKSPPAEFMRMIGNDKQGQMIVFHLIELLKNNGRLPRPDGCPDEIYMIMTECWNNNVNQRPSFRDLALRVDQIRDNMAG
FFIMMYTGSNV [DNAJC13_Y1131] showed a phosphorylation enrichment of 1.06. CTTIHNNYMCN [TP53_Y234_Y234N] was tested, and the phosphorylation enrichment was 0.61. VEFAKYGSLRG [RET_Y809_YF] gave a phosphorylation enrichment of 0.541. ALAHKYHGGGG [HBB_Y146] was tested, and the phosphorylation enrichment was 0.503. SVVVPYEAPEV [TP53_Y220_P222A] gave a phosphorylation enrichment of 0.998. Work on NNHGNYIVLLG [ETFDH_Y172_R175L] yielded a phosphorylation enrichment of 0.833. With GGDAVYTNGAI [RFX2_Y82] the phosphorylation enrichment was 0.494. Sequence PVVKLYATDGR [RP1_Y199] has a phosphorylation enrichment of 0.781. GHGRFYMKEAI [PGM1_Y66_D62H] showed a phosphorylation enrichment of 0.662. HEKKAYAFCGT [RPS6KA3_Y226_S227A] was tested, and the phosphorylation enrichment was 0.516. RGDCTYAPLLG [AR_Y269_M268T] was tested, and the phosphorylation enrichment was 1.18. For QRTMKYTTATE [MCCC1_Y41_G46E], the phosphorylation enrichment was 0.975. HRGCLYLAIEY [TEK_Y899_Y897C] showed a phosphorylation enrichment of 1.88. Sequence SFGENYDNSKS [MAN1B1_Y60] has a phosphorylation enrichment of 0.89. Work on PHQTIYSALMI [FGF23_Y70] yielded a phosphorylation enrichment of 1.7. With ALAHKYLGGGG [HBB_Y146_H147L] the phosphorylation enrichment was 0.464. NNIDYYKKTTN [FGFR2_Y657] showed a phosphorylation enrichment of 0.524. LASSEYPVQRR [GALK1_Y236_R239Q] gave a phosphorylation enrichment of 1.06. With TFEPNYGTVKR [RAPGEF6_Y1447_Q1452R_YF] the phosphorylation enrichment was 0.497. Sequence VFDMLYQVANL [USP24_Y1087_L1089V] has a phosphorylation enrichment of 0.863. HKDNNYISMWF [PAPOLG_Y432_V433I] was tested, and the phosphorylation enrichment was 1.46. In the case of ARMTNCGLPRY [TSPAN12_Y138_Y138C], the phosphorylation enrichment is reported as 0.519. FQSKHYACIRQ [TIMP3_Y182_YF] gave a phosphorylation enrichment of 0.823. Work on KSLSQYLEMDK [CAGE1_Y438_V435L] yielded a phosphorylation enrichment of 0.797. Work on PHRSIYFSSPK [MPG_Y75_Y71H] yielded a phosphorylation enrichment of 0.584. With DHKRQYELLKL [KIF4B_Y684_R680H] the phosphorylation enrichment was 0.514. AAVDEYLEYRR [FAM221A_Y17] showed a phosphorylation enrichment of 1.21. IEEGTYGVVYR [CDK11B_Y449] showed a phosphorylation enrichment of 0.902. SNKLYYQLEQE [PDPR_Y110] gave a phosphorylation enrichment of 1.27. SAASSYSFSDL [EMD_Y59] gave a phosphorylation enrichment of 0.874. CDTKLYTSVPN [DNTTIP2_Y427_A430V] was tested, and the phosphorylation enrichment was 0.842. For MEVGQYIFVKC [CYBB_Y324], the phosphorylation enrichment was 1.53. Sequence DYNPNYCFAGK [ALK_Y1096] has a phosphorylation enrichment of 0.873.

Each sequence was assayed against EPHB1 (UniProt P54762) in the same assay as above.
Chain of EPHB1 (P54762 whole entry, looked up): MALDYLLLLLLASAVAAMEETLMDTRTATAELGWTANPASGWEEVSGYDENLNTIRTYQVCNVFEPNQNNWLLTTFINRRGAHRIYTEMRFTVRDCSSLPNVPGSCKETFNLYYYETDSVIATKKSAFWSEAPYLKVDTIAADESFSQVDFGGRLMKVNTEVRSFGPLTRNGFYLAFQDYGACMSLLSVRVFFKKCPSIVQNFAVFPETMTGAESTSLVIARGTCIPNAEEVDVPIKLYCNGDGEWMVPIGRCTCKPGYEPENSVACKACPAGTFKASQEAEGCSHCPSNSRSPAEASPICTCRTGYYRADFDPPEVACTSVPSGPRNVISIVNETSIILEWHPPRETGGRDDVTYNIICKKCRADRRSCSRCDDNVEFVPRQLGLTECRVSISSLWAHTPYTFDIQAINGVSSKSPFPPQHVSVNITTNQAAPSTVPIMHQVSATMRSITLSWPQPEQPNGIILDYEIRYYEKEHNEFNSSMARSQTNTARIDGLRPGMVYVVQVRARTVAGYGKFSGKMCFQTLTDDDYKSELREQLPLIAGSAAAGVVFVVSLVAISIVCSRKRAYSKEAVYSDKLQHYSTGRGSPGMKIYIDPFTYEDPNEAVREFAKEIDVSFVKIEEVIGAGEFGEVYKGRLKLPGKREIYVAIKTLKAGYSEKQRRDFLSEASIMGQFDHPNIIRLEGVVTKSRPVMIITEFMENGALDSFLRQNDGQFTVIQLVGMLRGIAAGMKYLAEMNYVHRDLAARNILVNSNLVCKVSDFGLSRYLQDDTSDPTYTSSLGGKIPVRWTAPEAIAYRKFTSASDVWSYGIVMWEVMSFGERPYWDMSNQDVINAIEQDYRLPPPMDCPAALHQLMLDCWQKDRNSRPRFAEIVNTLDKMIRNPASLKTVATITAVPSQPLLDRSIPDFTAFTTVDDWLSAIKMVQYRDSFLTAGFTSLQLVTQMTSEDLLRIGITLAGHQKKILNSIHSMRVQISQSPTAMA
In the case of FFIMMYTGSNV [DNAJC13_Y1131], the phosphorylation enrichment is reported as 0.681. For CTTIHNNYMCN [TP53_Y234_Y234N], the phosphorylation enrichment was 0.44. For VEFAKYGSLRG [RET_Y809_YF], the phosphorylation enrichment was 0.403. In the case of ALAHKYHGGGG [HBB_Y146], the phosphorylation enrichment is reported as 0.333. For SVVVPYEAPEV [TP53_Y220_P222A], the phosphorylation enrichment was 0.649. Sequence NNHGNYIVLLG [ETFDH_Y172_R175L] has a phosphorylation enrichment of 7.55. Sequence GGDAVYTNGAI [RFX2_Y82] has a phosphorylation enrichment of 0.425. PVVKLYATDGR [RP1_Y199] gave a phosphorylation enrichment of 0.745. With GHGRFYMKEAI [PGM1_Y66_D62H] the phosphorylation enrichment was 0.342. Sequence HEKKAYAFCGT [RPS6KA3_Y226_S227A] has a phosphorylation enrichment of 0.561. For RGDCTYAPLLG [AR_Y269_M268T], the phosphorylation enrichment was 8.38. With QRTMKYTTATE [MCCC1_Y41_G46E] the phosphorylation enrichment was 0.791. HRGCLYLAIEY [TEK_Y899_Y897C] was tested, and the phosphorylation enrichment was 1.01. SFGENYDNSKS [MAN1B1_Y60] was tested, and the phosphorylation enrichment was 0.434. Work on PHQTIYSALMI [FGF23_Y70] yielded a phosphorylation enrichment of 5.93. Sequence ALAHKYLGGGG [HBB_Y146_H147L] has a phosphorylation enrichment of 0.324. NNIDYYKKTTN [FGFR2_Y657] was tested, and the phosphorylation enrichment was 0.543. For LASSEYPVQRR [GALK1_Y236_R239Q], the phosphorylation enrichment was 0.381. TFEPNYGTVKR [RAPGEF6_Y1447_Q1452R_YF] showed a phosphorylation enrichment of 0.55. VFDMLYQVANL [USP24_Y1087_L1089V] showed a phosphorylation enrichment of 2.75. HKDNNYISMWF [PAPOLG_Y432_V433I] showed a phosphorylation enrichment of 2.88. Sequence ARMTNCGLPRY [TSPAN12_Y138_Y138C] has a phosphorylation enrichment of 0.487. For FQSKHYACIRQ [TIMP3_Y182_YF], the phosphorylation enrichment was 0.541. KSLSQYLEMDK [CAGE1_Y438_V435L] was tested, and the phosphorylation enrichment was 0.382. Sequence PHRSIYFSSPK [MPG_Y75_Y71H] has a phosphorylation enrichment of 0.674. In the case of DHKRQYELLKL [KIF4B_Y684_R680H], the phosphorylation enrichment is reported as 0.448. Work on AAVDEYLEYRR [FAM221A_Y17] yielded a phosphorylation enrichment of 0.531. IEEGTYGVVYR [CDK11B_Y449] showed a phosphorylation enrichment of 4.1. SNKLYYQLEQE [PDPR_Y110] was tested, and the phosphorylation enrichment was 0.903. SAASSYSFSDL [EMD_Y59] was tested, and the phosphorylation enrichment was 0.508. CDTKLYTSVPN [DNTTIP2_Y427_A430V] was tested, and the phosphorylation enrichment was 1.11. Sequence MEVGQYIFVKC [CYBB_Y324] has a phosphorylation enrichment of 0.835. Work on DYNPNYCFAGK [ALK_Y1096] yielded a phosphorylation enrichment of 2.62.

These sequences were tested against FGFR3 (UniProt P22607) in the same assay as above.
Chain of FGFR3 (P22607 whole entry, looked up): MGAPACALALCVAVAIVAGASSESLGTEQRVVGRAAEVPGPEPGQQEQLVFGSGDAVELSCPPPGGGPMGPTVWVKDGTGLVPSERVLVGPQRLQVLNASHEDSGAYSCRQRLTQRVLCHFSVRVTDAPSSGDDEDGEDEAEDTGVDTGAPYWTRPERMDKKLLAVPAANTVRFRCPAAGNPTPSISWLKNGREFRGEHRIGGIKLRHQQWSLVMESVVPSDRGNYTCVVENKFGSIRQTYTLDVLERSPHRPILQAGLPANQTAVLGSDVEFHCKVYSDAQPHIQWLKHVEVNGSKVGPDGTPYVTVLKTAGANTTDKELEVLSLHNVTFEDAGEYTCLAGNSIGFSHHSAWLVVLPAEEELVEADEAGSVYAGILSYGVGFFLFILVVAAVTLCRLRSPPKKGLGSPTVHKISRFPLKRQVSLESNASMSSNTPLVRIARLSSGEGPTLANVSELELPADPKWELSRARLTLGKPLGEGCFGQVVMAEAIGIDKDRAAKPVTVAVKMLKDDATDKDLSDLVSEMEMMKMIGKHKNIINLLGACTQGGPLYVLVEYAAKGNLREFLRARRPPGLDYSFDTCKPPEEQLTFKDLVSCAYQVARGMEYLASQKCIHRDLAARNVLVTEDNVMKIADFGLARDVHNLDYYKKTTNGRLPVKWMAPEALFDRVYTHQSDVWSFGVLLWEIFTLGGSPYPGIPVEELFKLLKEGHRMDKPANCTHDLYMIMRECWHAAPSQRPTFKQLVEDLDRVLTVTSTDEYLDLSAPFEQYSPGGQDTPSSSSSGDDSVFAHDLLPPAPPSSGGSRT
FFIMMYTGSNV [DNAJC13_Y1131] gave a phosphorylation enrichment of 0.782. Sequence CTTIHNNYMCN [TP53_Y234_Y234N] has a phosphorylation enrichment of 0.452. Sequence VEFAKYGSLRG [RET_Y809_YF] has a phosphorylation enrichment of 0.469. ALAHKYHGGGG [HBB_Y146] was tested, and the phosphorylation enrichment was 0.343. SVVVPYEAPEV [TP53_Y220_P222A] showed a phosphorylation enrichment of 0.8. Sequence NNHGNYIVLLG [ETFDH_Y172_R175L] has a phosphorylation enrichment of 1.71. GGDAVYTNGAI [RFX2_Y82] gave a phosphorylation enrichment of 0.532. PVVKLYATDGR [RP1_Y199] was tested, and the phosphorylation enrichment was 0.802. In the case of GHGRFYMKEAI [PGM1_Y66_D62H], the phosphorylation enrichment is reported as 0.59. In the case of HEKKAYAFCGT [RPS6KA3_Y226_S227A], the phosphorylation enrichment is reported as 0.581. With RGDCTYAPLLG [AR_Y269_M268T] the phosphorylation enrichment was 1.26. Work on QRTMKYTTATE [MCCC1_Y41_G46E] yielded a phosphorylation enrichment of 1.11. In the case of HRGCLYLAIEY [TEK_Y899_Y897C], the phosphorylation enrichment is reported as 1.31. SFGENYDNSKS [MAN1B1_Y60] showed a phosphorylation enrichment of 0.548. Work on PHQTIYSALMI [FGF23_Y70] yielded a phosphorylation enrichment of 1.61. ALAHKYLGGGG [HBB_Y146_H147L] showed a phosphorylation enrichment of 0.325. In the case of NNIDYYKKTTN [FGFR2_Y657], the phosphorylation enrichment is reported as 0.495. Sequence LASSEYPVQRR [GALK1_Y236_R239Q] has a phosphorylation enrichment of 1.17. In the case of TFEPNYGTVKR [RAPGEF6_Y1447_Q1452R_YF], the phosphorylation enrichment is reported as 0.45. Sequence VFDMLYQVANL [USP24_Y1087_L1089V] has a phosphorylation enrichment of 0.923. HKDNNYISMWF [PAPOLG_Y432_V433I] gave a phosphorylation enrichment of 2.46. ARMTNCGLPRY [TSPAN12_Y138_Y138C] gave a phosphorylation enrichment of 0.487. In the case of FQSKHYACIRQ [TIMP3_Y182_YF], the phosphorylation enrichment is reported as 0.512. Work on KSLSQYLEMDK [CAGE1_Y438_V435L] yielded a phosphorylation enrichment of 0.487. PHRSIYFSSPK [MPG_Y75_Y71H] was tested, and the phosphorylation enrichment was 0.927. With DHKRQYELLKL [KIF4B_Y684_R680H] the phosphorylation enrichment was 0.52. For AAVDEYLEYRR [FAM221A_Y17], the phosphorylation enrichment was 0.522. IEEGTYGVVYR [CDK11B_Y449] showed a phosphorylation enrichment of 0.702. Sequence SNKLYYQLEQE [PDPR_Y110] has a phosphorylation enrichment of 4.95. Work on SAASSYSFSDL [EMD_Y59] yielded a phosphorylation enrichment of 0.666. For CDTKLYTSVPN [DNTTIP2_Y427_A430V], the phosphorylation enrichment was 0.797. MEVGQYIFVKC [CYBB_Y324] gave a phosphorylation enrichment of 2.43. DYNPNYCFAGK [ALK_Y1096] gave a phosphorylation enrichment of 0.778.

Each sequence was assayed on Fer (mouse) in the same assay as above.
FFIMMYTGSNV [DNAJC13_Y1131] gave a phosphorylation enrichment of 0.589. Sequence CTTIHNNYMCN [TP53_Y234_Y234N] has a phosphorylation enrichment of 0.383. VEFAKYGSLRG [RET_Y809_YF] showed a phosphorylation enrichment of 0.4. In the case of ALAHKYHGGGG [HBB_Y146], the phosphorylation enrichment is reported as 0.361. In the case of SVVVPYEAPEV [TP53_Y220_P222A], the phosphorylation enrichment is reported as 0.546. NNHGNYIVLLG [ETFDH_Y172_R175L] was tested, and the phosphorylation enrichment was 0.363. GGDAVYTNGAI [RFX2_Y82] gave a phosphorylation enrichment of 0.5. With PVVKLYATDGR [RP1_Y199] the phosphorylation enrichment was 0.575. Work on GHGRFYMKEAI [PGM1_Y66_D62H] yielded a phosphorylation enrichment of 0.405. For HEKKAYAFCGT [RPS6KA3_Y226_S227A], the phosphorylation enrichment was 0.46. RGDCTYAPLLG [AR_Y269_M268T] was tested, and the phosphorylation enrichment was 1.33. In the case of QRTMKYTTATE [MCCC1_Y41_G46E], the phosphorylation enrichment is reported as 0.607. HRGCLYLAIEY [TEK_Y899_Y897C] was tested, and the phosphorylation enrichment was 0.868. In the case of SFGENYDNSKS [MAN1B1_Y60], the phosphorylation enrichment is reported as 0.444. In the case of PHQTIYSALMI [FGF23_Y70], the phosphorylation enrichment is reported as 20.3. In the case of ALAHKYLGGGG [HBB_Y146_H147L], the phosphorylation enrichment is reported as 0.269. Sequence NNIDYYKKTTN [FGFR2_Y657] has a phosphorylation enrichment of 0.6. In the case of LASSEYPVQRR [GALK1_Y236_R239Q], the phosphorylation enrichment is reported as 0.981. TFEPNYGTVKR [RAPGEF6_Y1447_Q1452R_YF] showed a phosphorylation enrichment of 0.701. With VFDMLYQVANL [USP24_Y1087_L1089V] the phosphorylation enrichment was 11.7. HKDNNYISMWF [PAPOLG_Y432_V433I] gave a phosphorylation enrichment of 1.14. ARMTNCGLPRY [TSPAN12_Y138_Y138C] was tested, and the phosphorylation enrichment was 0.335. With FQSKHYACIRQ [TIMP3_Y182_YF] the phosphorylation enrichment was 0.472. KSLSQYLEMDK [CAGE1_Y438_V435L] was tested, and the phosphorylation enrichment was 0.348. With PHRSIYFSSPK [MPG_Y75_Y71H] the phosphorylation enrichment was 0.663. DHKRQYELLKL [KIF4B_Y684_R680H] showed a phosphorylation enrichment of 0.505. Sequence AAVDEYLEYRR [FAM221A_Y17] has a phosphorylation enrichment of 0.401. Work on IEEGTYGVVYR [CDK11B_Y449] yielded a phosphorylation enrichment of 7.46. In the case of SNKLYYQLEQE [PDPR_Y110], the phosphorylation enrichment is reported as 0.601. Work on SAASSYSFSDL [EMD_Y59] yielded a phosphorylation enrichment of 0.478. With CDTKLYTSVPN [DNTTIP2_Y427_A430V] the phosphorylation enrichment was 1.27. With MEVGQYIFVKC [CYBB_Y324] the phosphorylation enrichment was 0.708. DYNPNYCFAGK [ALK_Y1096] was tested, and the phosphorylation enrichment was 0.735.

Reference: the supplement of paper PMC10065799, “High-throughput profiling of sequence recognition by tyrosine kinases and SH2 domains using bacterial peptide display” (eLife, 2023)
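Note: 11-residue human phosphosite peptides and single-mutation variants displayed on the E. coli surface, counted by deep sequencing, each peptide's frequency after selection divided by its frequency in the unselected input library; frequency after pTyr selection over input frequency; kinase dosed for 20-30% of maximal phosphorylation in three min.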
